In US9862971B2 (BUNDESREPUBLIK DEUTSCHLAND, LETZTVERTRETEN DURCH DEN …, dated 2018):

B1: HcΔ22 (other)
chain: MVINREHLMIDRPYVLLAVLFVMFLSLIGLLAIAGIRLHRAAIYTAEIHKSLSTNLDVTNSIEHQVKDVLTPLFKIIGDEVGLRTPQRFTDLVKFISDKIKFLNPDREYDFRDLTWCINPPERIKLDYDQYCADVAAEELMNALVNSTLLETRTTNQFLAVSKGNCSGPTTIRGQFSNMSLSLLDLYLGRGYNVSSIVTMTSQGMYGGTYLVEKPNLSSKRSELSQLSMYRVFEVGVIRNPGLGAPVFHMTNYLEQPVSNDLSNCMVALGELKLAALCHGEDSITIPYQGSGKGVSFQLVKLGVWKSPTDMQSWVPLSTDDPVIDRLYLSSHRGVIADNQAKWAVPTTRTDDKLRMETCFQQACKGKIQALCENPEWAPLKDNRIPSYGVLSVDLSLTVELKIKIASGFGPLITHGSGMDLYKSNHNNVYWLTIPPMKNLALGVINTLEWIPRFKVSPYLFTVPIKEAGGDCHAPTYLPAEVDGDVKLSSNLVILPGQDLQYVLATYDTSRVEHAVVYYVYSPSRSFSYFYPFRLPIKGVPIELQVECFTWDQKLWCRHFCVLADSESGGHITHSGMVGMGVSCTVTREDGTNRR
B2: HcΔ23 (other)
chain: MINREHLMIDRPYVLLAVLFVMFLSLIGLLAIAGIRLHRAAIYTAEIHKSLSTNLDVTNSIEHQVKDVLTPLFKIIGDEVGLRTPQRFTDLVKFISDKIKFLNPDREYDFRDLTWCINPPERIKLDYDQYCADVAAEELMNALVNSTLLETRTTNQFLAVSKGNCSGPTTIRGQFSNMSLSLLDLYLGRGYNVSSIVTMTSQGMYGGTYLVEKPNLSSKRSELSQLSMYRVFEVGVIRNPGLGAPVFHMTNYLEQPVSNDLSNCMVALGELKLAALCHGEDSITIPYQGSGKGVSFQLVKLGVWKSPTDMQSWVPLSTDDPVIDRLYLSSHRGVIADNQAKWAVPTTRTDDKLRMETCFQQACKGKIQALCENPEWAPLKDNRIPSYGVLSVDLSLTVELKIKIASGFGPLITHGSGMDLYKSNHNNVYWLTIPPMKNLALGVINTLEWIPRFKVSPYLFTVPIKEAGGDCHAPTYLPAEVDGDVKLSSNLVILPGQDLQYVLATYDTSRVEHAVVYYVYSPSRSFSYFYPFRLPIKGVPIELQVECFTWDQKLWCRHFCVLADSESGGHITHSGMVGMGVSCTVTREDGTNRR
B3: HcΔ24 (other)
chain: MNREHLMIDRPYVLLAVLFVMFLSLIGLLAIAGIRLHRAAIYTAEIHKSLSTNLDVTNSIEHQVKDVLTPLFKIIGDEVGLRTPQRFTDLVKFISDKIKFLNPDREYDFRDLTWCINPPERIKLDYDQYCADVAAEELMNALVNSTLLETRTTNQFLAVSKGNCSGPTTIRGQFSNMSLSLLDLYLGRGYNVSSIVTMTSQGMYGGTYLVEKPNLSSKRSELSQLSMYRVFEVGVIRNPGLGAPVFHMTNYLEQPVSNDLSNCMVALGELKLAALCHGEDSITIPYQGSGKGVSFQLVKLGVWKSPTDMQSWVPLSTDDPVIDRLYLSSHRGVIADNQAKWAVPTTRTDDKLRMETCFQQACKGKIQALCENPEWAPLKDNRIPSYGVLSVDLSLTVELKIKIASGFGPLITHGSGMDLYKSNHNNVYWLTIPPMKNLALGVINTLEWIPRFKVSPYLFTVPIKEAGGDCHAPTYLPAEVDGDVKLSSNLVILPGQDLQYVLATYDTSRVEHAVVYYVYSPSRSFSYFYPFRLPIKGVPIELQVECFTWDQKLWCRHFCVLADSESGGHITHSGMVGMGVSCTVTREDGTNRR
B4: HcΔ21 (other)
chain: MIVINREHLMIDRPYVLLAVLFVMFLSLIGLLAIAGIRLHRAAIYTAEIHKSLSTNLDVTNSIEHQVKDVLTPLFKIIGDEVGLRTPQRFTDLVKFISDKIKFLNPDREYDFRDLTWCINPPERIKLDYDQYCADVAAEELMNALVNSTLLETRTTNQFLAVSKGNCSGPTTIRGQFSNMSLSLLDLYLGRGYNVSSIVTMTSQGMYGGTYLVEKPNLSSKRSELSQLSMYRVFEVGVIRNPGLGAPVFHMTNYLEQPVSNDLSNCMVALGELKLAALCHGEDSITIPYQGSGKGVSFQLVKLGVWKSPTDMQSWVPLSTDDPVIDRLYLSSHRGVIADNQAKWAVPTTRTDDKLRMETCFQQACKGKIQALCENPEWAPLKDNRIPSYGVLSVDLSLTVELKIKIASGFGPLITHGSGMDLYKSNHNNVYWLTIPPMKNLALGVINTLEWIPRFKVSPYLFTVPIKEAGGDCHAPTYLPAEVDGDVKLSSNLVILPGQDLQYVLATYDTSRVEHAVVYYVYSPSRSFSYFYPFRLPIKGVPIELQVECFTWDQKLWCRHFCVLADSESGGHITHSGMVGMGVSCTVTREDGTNRR
B5: HmutscFvCD20Δ19 (other)
chain: MSRIVINREHLMIDRPYVLLAVLFVMFLSLIGLLAIAGIRLHRAAIYTAEIHKSLSTNLDVTNSIEHQVKDVLTPLFKIIGDEVGLRTPQRFTDLVKFISDKIKFLNPDREYDFRDLTWCINPPERIKLDYDQYCADVAAEELMNALVNSTLLETRTTNQFLAVSKGNCSGPTTIRGQFSNMSLSLLDLYLGRGYNVSSIVTMTSQGMYGGTYLVEKPNLSSKRSELSQLSMYRVFEVGVIRNPGLGAPVFHMTNYLEQPVSNDLSNCMVALGELKLAALCHGEDSITIPYQGSGKGVSFQLVKLGVWKSPTDMQSWVPLSTDDPVIDRLYLSSHRGVIADNQAKWAVPTTRTDDKLRMETCFQQACKGKIQALCENPEWAPLKDNRIPSYGVLSVDLSLTVELKIKIASGFGPLITHGSGMDLYKSNHNNVYWLTIPPMKNLALGVINTLEWIPRFKVSPALFTVPIKEAGGDCHAPTYLPAEVDGDVKLSSNLVILPGQDLQYVLATYDTSAVEHAVVYYVYSPSRLSSYFYPFRLPIKGVPIELQVECFTWDQKLWCRHFCVLADSESGGHITHSGMVGMGVSCTVTREDGTNAAQPAIEGRMAQVQLVQSGAELVKPGASVKMSCKASGYTFTSYNMHWVKQTPGQGLEWIGAIYPGNGDTSYNQKFKGKATLTADKSSSTAYMQLSSLTSEDSAVYYCARAQLRPNYWYFDVWGAGTTVTVSKISGGGGSGGGGSGGGGSGGSSDIVLSQSPAILSASPGEKVTMTCRASSSVSYMHWYQQKPGSSPKPWIYATSNLASGVPARFSGSGSGTSYSLTISRVEAEDAATYYCQQWISNPPTFGAGTKLELKAAARGSHHHHHH
B6: HcΔ14 (other)
chain: MPHPKGSRIVINREHLMIDRPYVLLAVLFVMFLSLIGLLAIAGIRLHRAAIYTAEIHKSLSTNLDVTNSIEHQVKDVLTPLFKIIGDEVGLRTPQRFTDLVKFISDKIKFLNPDREYDFRDLTWCINPPERIKLDYDQYCADVAAEELMNALVNSTLLETRTTNQFLAVSKGNCSGPTTIRGQFSNMSLSLLDLYLGRGYNVSSIVTMTSQGMYGGTYLVEKPNLSSKRSELSQLSMYRVFEVGVIRNPGLGAPVFHMTNYLEQPVSNDLSNCMVALGELKLAALCHGEDSITIPYQGSGKGVSFQLVKLGVWKSPTDMQSWVPLSTDDPVIDRLYLSSHRGVIADNQAKWAVPTTRTDDKLRMETCFQQACKGKIQALCENPEWAPLKDNRIPSYGVLSVDLSLTVELKIKIASGFGPLITHGSGMDLYKSNHNNVYWLTIPPMKNLALGVINTLEWIPRFKVSPYLFTVPIKEAGGDCHAPTYLPAEVDGDVKLSSNLVILPGQDLQYVLATYDTSRVEHAVVYYVYSPSRSFSYFYPFRLPIKGVPIELQVECFTWDQKLWCRHFCVLADSESGGHITHSGMVGMGVSCTVTREDGTNRR
B7: HcΔ18 (other)
chain: MGSRIVINREHLMIDRPYVLLAVLFVMFLSLIGLLAIAGIRLHRAAIYTAEIHKSLSTNLDVTNSIEHQVKDVLTPLFKIIGDEVGLRTPQRFTDLVKFISDKIKFLNPDREYDFRDLTWCINPPERIKLDYDQYCADVAAEELMNALVNSTLLETRTTNQFLAVSKGNCSGPTTIRGQFSNMSLSLLDLYLGRGYNVSSIVTMTSQGMYGGTYLVEKPNLSSKRSELSQLSMYRVFEVGVIRNPGLGAPVFHMTNYLEQPVSNDLSNCMVALGELKLAALCHGEDSITIPYQGSGKGVSFQLVKLGVWKSPTDMQSWVPLSTDDPVIDRLYLSSHRGVIADNQAKWAVPTTRTDDKLRMETCFQQACKGKIQALCENPEWAPLKDNRIPSYGVLSVDLSLTVELKIKIASGFGPLITHGSGMDLYKSNHNNVYWLTIPPMKNLALGVINTLEWIPRFKVSPYLFTVPIKEAGGDCHAPTYLPAEVDGDVKLSSNLVILPGQDLQYVLATYDTSRVEHAVVYYVYSPSRSFSYFYPFRLPIKGVPIELQVECFTWDQKLWCRHFCVLADSESGGHITHSGMVGMGVSCTVTREDGTNRR
B8: HcΔ24+4A (other)
chain: MAAAANREHLMIDRPYVLLAVLFVMFLSLIGLLAIAGIRLHRAAIYTAEIHKSLSTNLDVTNSIEHQVKDVLTPLFKIIGDEVGLRTPQRFTDLVKFISDKIKFLNPDREYDFRDLTWCINPPERIKLDYDQYCADVAAEELMNALVNSTLLETRTTNQFLAVSKGNCSGPTTIRGQFSNMSLSLLDLYLGRGYNVSSIVTMTSQGMYGGTYLVEKPNLSSKRSELSQLSMYRVFEVGVIRNPGLGAPVFHMTNYLEQPVSNDLSNCMVALGELKLAALCHGEDSITIPYQGSGKGVSFQLVKLGVWKSPTDMQSWVPLSTDDPVIDRLYLSSHRGVIADNQAKWAVPTTRTDDKLRMETCFQQACKGKIQALCENPEWAPLKDNRIPSYGVLSVDLSLTVELKIKIASGFGPLITHGSGMDLYKSNHNNVYWLTIPPMKNLALGVINTLEWIPRFKVSPYLFTVPIKEAGGDCHAPTYLPAEVDGDVKLSSNLVILPGQDLQYVLATYDTSRVEHAVVYYVYSPSRSFSYFYPFRLPIKGVPIELQVECFTWDQKLWCRHFCVLADSESGGHITHSGMVGMGVSCTVTREDGTNRR
B9: HcΔ19 (other)
chain: MSRIVINREHLMIDRPYVLLAVLFVMFLSLIGLLAIAGIRLHRAAIYTAEIHKSLSTNLDVTNSIEHQVKDVLTPLFKIIGDEVGLRTPQRFTDLVKFISDKIKFLNPDREYDFRDLTWCINPPERIKLDYDQYCADVAAEELMNALVNSTLLETRTTNQFLAVSKGNCSGPTTIRGQFSNMSLSLLDLYLGRGYNVSSIVTMTSQGMYGGTYLVEKPNLSSKRSELSQLSMYRVFEVGVIRNPGLGAPVFHMTNYLEQPVSNDLSNCMVALGELKLAALCHGEDSITIPYQGSGKGVSFQLVKLGVWKSPTDMQSWVPLSTDDPVIDRLYLSSHRGVIADNQAKWAVPTTRTDDKLRMETCFQQACKGKIQALCENPEWAPLKDNRIPSYGVLSVDLSLTVELKIKIASGFGPLITHGSGMDLYKSNHNNVYWLTIPPMKNLALGVINTLEWIPRFKVSPYLFTVPIKEAGGDCHAPTYLPAEVDGDVKLSSNLVILPGQDLQYVLATYDTSRVEHAVVYYVYSPSRSFSYFYPFRLPIKGVPIELQVECFTWDQKLWCRHFCVLADSESGGHITHSGMVGMGVSCTVTREDGTNRR

These binders were tested against T1, CD46 (human, UniProt P15529) (assay: cell-based or functional assay).

| Binder | titer [t.u./ml] of HIV-1 vector particles on HT1080 cells, not concentrated supernatant [t.u./ml] |
| --- | --- |
| B1 | 140 |
| B2 | 130 |
| B3 | 88 |
| B4 | 1500 |

The binders below were run against human CD20 (human, UniProt P11836) (assay: cell-based or functional assay).

| Binder | titer [t.u./ml] of HIV-1 vector particles on HT1080-CD20 cells, concentrated supernatant [t.u./ml] |
| --- | --- |
| B5 | 1.32e+06 |

Target: T1, CD46
Experiment: cell-based or functional assay
Remark: another data set of the same source

| Binder | titer [t.u./ml] of HIV-1 vector particles on 293T cells, concentrated supernatant [t.u./ml] | titer [t.u./ml] of HIV-1 vector particles on U-87MG cells, concentrated supernatant [t.u./ml] |
| --- | --- | --- |
| B6 | 2900 | 3420 |
| B7 | 1e+06 | ≥ 1e+06 |
| B8 | 1.6e+06 | ≥ 1e+06 |
| B9 | 200000 | ≥ 1e+06 |
